Measured values: PMC10774353, “Multi-scale structures of the mammalian radial spoke and divergence of axonemal complexes in ependymal cilia” (Nature Communications, 2024)

B1: FLAG-tagged Rsph16 (natural protein, mouse, UniProt Q80Y75 1-316, looked up)
chain: MGLDYYAVLQVTRNSEDAQIKKAYRKLALKNHPLKSSEPGAPEIFKQIAEAYDVLSDPVKRGIYDKFGEEGLKGGIPLEFGSQTPWTTGYVFHGNPDKVFHEFFGGDNPFSEFFDAEGNDIDLNFGGLWGRGVQKQDPPIERDLYLSLEDLFFGCTKKIKISRRVLNEDRYSSTIKDKILTIDVRPGWRQGTRITFEKEGDQGPNIIPADIIFIVKEKLHPRFRREHDNLFFVYPIPLGKALTCCTVEVKTLDDRLLNIPINDIVHPKYFKIVPGEGMPLPENPSKKGDLFIFFDIQFPTRLTPQKKQMLRQALLT
notes: Rsph16 (homologue of HSP40, DnaJ family), mouse, NM_153527; full-length gene amplified from cDNAs of mouse ependymal cells, in pcDNA3.4; Stands as a homodimer (the arch bridge Rsph16-Rsph16') in both the head-neck monomer and the head-neck dimer; not shown: 3xFLAG, N-terminal, kept
B3: Rsph3b (natural protein, mouse)
chain: MTDRNPRTAEASGLYTYSSRPRAVACQRRRHRDSILQPVEEPMSYGNIMYDRRVIRGNTYALPTGQVPGQPDPLELQRQQQARRRALARKRAQEQLKPRTPEPVEGRKHVDIQTELYLEEIADRIVEVDMECQTDAFLDRPPTPLFIPAKTGKDVATQILGGELFDFDLEVKPMLEVLVGKTIEQSLLEVMEEEELANLRARQYAYEEIRNVELAEVQRLEEQERRHREEKERRKKQQWEIVHKRNETLQKISALIFARQYLANLLPSVFDKLRNSGFFYDPIERDIEVGFLPWLMNEVEKSMEHSMVGRTVLDMLIRDVVERRINDYEHKEAMPPGQKTNVINGPNTVTDPSVTTLHTQKPVLDRVSSQPAPSQERKPVEEGGHLMAE
notes: Rsph3b (radial spoke head protein 3 homolog B), mouse, NM_001083945; non-tagged, in pcDNA3.4; Non-tagged

Key:
Assay in all cases: cryo-EM structure; RS head-neck complex co-expressed in HEK293F, purified by Strep-Tactin then anti-FLAG beads, cross-linked by GraFix (0-0.1% glutaraldehyde, 10-40% glycerol, 4 °C); monomer map 3.28 Å, dimer map 3.57 Å
[1] = biological target: the molecule itself
[2] = biological target: B1; settings: both partners purified
[3] = biological target: B3; settings: both partners purified
[4] = biological target: T1, Rsph4a (mouse, UniProt Q8BYM7 1-716); settings: both partners purified
T1 construct: Rsph4a (radial spoke head protein 4 homolog A), mouse, NM_001162957; Two copies stand in each RS head
T1 sequence: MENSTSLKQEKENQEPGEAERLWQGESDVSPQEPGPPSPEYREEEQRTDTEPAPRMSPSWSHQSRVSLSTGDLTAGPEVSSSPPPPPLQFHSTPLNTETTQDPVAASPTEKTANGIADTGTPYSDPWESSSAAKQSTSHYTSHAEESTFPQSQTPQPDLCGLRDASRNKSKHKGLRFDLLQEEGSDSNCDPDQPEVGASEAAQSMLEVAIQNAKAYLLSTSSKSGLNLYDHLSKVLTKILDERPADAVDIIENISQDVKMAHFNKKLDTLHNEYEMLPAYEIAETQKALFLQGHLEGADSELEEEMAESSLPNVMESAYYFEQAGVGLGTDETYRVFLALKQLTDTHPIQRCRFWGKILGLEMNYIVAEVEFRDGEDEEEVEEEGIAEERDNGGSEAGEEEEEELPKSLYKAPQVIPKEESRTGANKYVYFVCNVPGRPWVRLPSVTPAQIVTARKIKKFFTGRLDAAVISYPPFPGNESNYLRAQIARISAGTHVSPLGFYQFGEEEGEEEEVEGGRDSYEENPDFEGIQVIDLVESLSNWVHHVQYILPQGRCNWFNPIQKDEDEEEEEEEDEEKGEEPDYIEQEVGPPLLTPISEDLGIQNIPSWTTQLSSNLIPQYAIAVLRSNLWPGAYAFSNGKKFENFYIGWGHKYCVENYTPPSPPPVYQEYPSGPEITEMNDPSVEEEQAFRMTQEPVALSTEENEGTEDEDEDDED

**Q.** B1 was tested. Which “stoichiometry N” value [1] did it give?
**A.** 2

B2: Rsph23 (natural protein, mouse)
chain: MEVSMPLPQIYVEKTLALIKPDVVDKEEEIQDIILGSGFTIIQRRKLHLSPEHCSNFYVEQYGKMFFPNLTAYMSSGPLVAMILARHKAISYWKELMGPSNSLVAKETHPDSLRAIYGTDELRNALHGSNDFAASEREIRFMFPAVIIEPIPIGQAAKDYINLYVAPTLLQGLTELCKEKPPDPYLWLADWLMKNNPNKPKLCHFPVTEEP
notes: Rsph23, mouse, NM_080637
**Q.** Which results are given for B2?
**A.** binding result [2]: binds; binding result [3]: binds

**Q.** Does B3 bind [4]?
**A.** binds

B4: Rsph9 (natural protein, mouse)
chain: MDADSLLLSLELASGSGQGLSPDRRASLLTSLMLVKRDYRFARVLFWGRILGLVADYYIAQGLSEDQLAPRKTLYSLNCTEWSLLPPATEEMAMQISVVSGRFMGDPSHEYEHTELQKVNEGEKVFDEEVVVQIKEETRLVSIIDQIDKAVAIIPRGALFKTPFGVTHVNRTFEGLPLSEVRKLSSYFHFREAIDLKNKTLLEKSDLEPSLDFLDSLEYDIPRGSWSIQMERGNALVVLRSLLWPGLTFYHAPRTKNYGYIYVGTGEKNMDLPFML
notes: Rsph9 (radial spoke head protein 9 homolog), mouse, NM_029338; non-tagged, in pcDNA3.4; Two copies stand in each RS head; Non-tagged
**Q.** Does B4 bind [2]?
**A.** binds

**Q.** Does B4 bind [4]?
**A.** binds
